Reference: article doi:10.1101/2025.11.01.685996 (bioRxiv, 2025)

Experiments:
[1] = molecular target: human C3aR with C-terminal SmBiT (hC3aR) (human) (UniProt Q16581)
[2] = molecular target: human C5aR1 with C-terminal SmBiT (hC5aR1-SmBiT) (human) (UniProt P21730)
[3] = molecular target: human C5aR1-Rluc8 (human) (UniProt P21730)
[4] = molecular target: mouse C5aR2, purified from Sf9 cells (mC5aR2) (not stated | mouse) (UniProt P08173); test: cryo-EM structure
[5] = molecular target: mouse C5aR2, purified from Sf9 cells (mC5aR2) (not stated | mouse) (UniProt P08173); test: SEC
[6] = molecular target: T1, mouse C5aR1, purified (mC5aR1) for cryo-EM and HDX-MS (mouse, UniProt P30993 1-351); test: cryo-EM structure
T1 sequence: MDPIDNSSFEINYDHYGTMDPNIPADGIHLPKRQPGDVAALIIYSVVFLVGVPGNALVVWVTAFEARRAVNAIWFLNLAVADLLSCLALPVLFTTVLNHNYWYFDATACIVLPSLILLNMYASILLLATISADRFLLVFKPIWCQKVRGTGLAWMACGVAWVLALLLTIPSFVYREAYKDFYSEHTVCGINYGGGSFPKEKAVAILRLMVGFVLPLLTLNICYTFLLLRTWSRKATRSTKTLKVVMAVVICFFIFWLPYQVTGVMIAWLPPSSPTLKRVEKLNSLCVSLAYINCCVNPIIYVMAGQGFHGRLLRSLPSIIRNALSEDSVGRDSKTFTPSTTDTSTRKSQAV

Sequence of human C5aR1 with C-terminal SmBiT (hC5aR1-SmBiT) (human) (P21730 whole entry): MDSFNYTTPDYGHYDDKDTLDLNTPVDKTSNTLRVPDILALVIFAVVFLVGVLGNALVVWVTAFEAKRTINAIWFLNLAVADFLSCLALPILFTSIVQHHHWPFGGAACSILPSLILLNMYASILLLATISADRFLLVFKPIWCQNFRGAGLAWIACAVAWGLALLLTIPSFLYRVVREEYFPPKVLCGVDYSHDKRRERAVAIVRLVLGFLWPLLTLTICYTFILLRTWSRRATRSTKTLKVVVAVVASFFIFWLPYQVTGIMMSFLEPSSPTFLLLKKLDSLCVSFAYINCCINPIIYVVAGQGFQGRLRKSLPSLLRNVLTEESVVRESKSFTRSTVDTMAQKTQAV
Sequence of human C5aR1-Rluc8 (human) (P21730 whole entry): as above
Sequence of human C3aR with C-terminal SmBiT (hC3aR) (human) (Q16581 whole entry): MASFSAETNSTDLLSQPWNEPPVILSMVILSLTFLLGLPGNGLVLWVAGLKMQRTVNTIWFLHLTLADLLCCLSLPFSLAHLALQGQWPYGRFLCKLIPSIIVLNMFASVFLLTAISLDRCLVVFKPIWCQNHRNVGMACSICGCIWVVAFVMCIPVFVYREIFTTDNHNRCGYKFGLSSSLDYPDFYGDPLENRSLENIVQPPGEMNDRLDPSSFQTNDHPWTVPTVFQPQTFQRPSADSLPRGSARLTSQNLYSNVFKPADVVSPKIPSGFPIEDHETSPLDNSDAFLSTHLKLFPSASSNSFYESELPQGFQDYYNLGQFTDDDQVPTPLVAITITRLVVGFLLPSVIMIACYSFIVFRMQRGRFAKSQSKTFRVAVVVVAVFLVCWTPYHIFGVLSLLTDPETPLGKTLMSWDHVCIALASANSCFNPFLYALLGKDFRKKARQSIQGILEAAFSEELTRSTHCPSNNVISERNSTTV

“R8Y, [Tyr1,Tyr8]BM2020-8, C5aR2-selective peptide agonist” showed an activation of C3aR (Figure S10D and Table S1) [1] of over 10 µM and an activation of C5aR1 (Figure S10D and Table S1) [2] of over 10 µM.

For [Tyr8]BM2020-8 peptide, the efficacy at C5aR1 relative to C5a; read-out not given [3] was 41%.

For “mouse C5aR2, purified from Sf9 cells (mC5aR2) (from UniProt P08173 2-23) (receptor)”, the stoichiometry N [4] was 2 and the stoichiometry N [5] was 2.

B1: mouse complement anaphylatoxin C5a, recombinant (mC5a) (ligand)
chain: NLHLLRQKIEEQAAKYKHSVPKKCCYDGARVNFYETCEERVARVTIGPLCIRAFNECCTIANKIRKESPHKPVQLGR
B1: binds [6].
